{
  "source": "paper PMC3806850",
  "key": {"[1]": {"biological_target": "5T4Fab(V18)-SEA (not stated | not stated (staphylococcal)) (UniProt P0A0L2)", "sequence (P0A0L2 whole entry, looked up)": "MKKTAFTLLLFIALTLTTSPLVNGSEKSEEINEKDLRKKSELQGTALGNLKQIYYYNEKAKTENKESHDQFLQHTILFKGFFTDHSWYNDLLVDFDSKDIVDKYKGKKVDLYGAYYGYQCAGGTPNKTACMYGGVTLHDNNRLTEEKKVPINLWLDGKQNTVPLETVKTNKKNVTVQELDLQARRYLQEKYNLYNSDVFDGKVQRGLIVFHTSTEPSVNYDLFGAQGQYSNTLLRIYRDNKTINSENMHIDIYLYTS", "test": "SPR"}, "[2]": {"biological_target": "C215Fab-SEE (not stated | not stated (staphylococcal)) (UniProt P12993)", "test": "SPR"}},
  "data": [
    {"substance": "Recombinant soluble human MHC class II (HLA-DR1) in complex with HA peptide (from UniProt P01903) (peptide-MHC)", "values": [
      {"measurement": "Kd", "setting": "[1]", "value": 0.4, "unit": "µM"},
      {"measurement": "koff", "setting": "[1]", "value": 0.0011, "unit": "s⁻¹"},
      {"measurement": "kon", "setting": "[1]", "value": 2800, "unit": "M⁻¹ s⁻¹"},
      {"measurement": "Kd", "setting": "[2]", "value": 1.3, "unit": "µM"},
      {"measurement": "koff", "setting": "[2]", "value": 0.0029, "unit": "s⁻¹"},
      {"measurement": "kon", "setting": "[2]", "value": 2300, "unit": "M⁻¹ s⁻¹"}
    ]}
  ]
}
